The target in the test is T1, histone H4 (in the PARylated nucleosome) (UniProt P62799 1-103).
T1 construct: histone H4 as in the nucleosome m2; The H4 chain of m2, written on its own for the contact with ALC1's C-ATPase lobe; also called H4 tail
The experiment in a line: cryo-EM structure; re-analysis of the public dataset EMPIAR-10739 in CryoSPARC: WT ALC1 with an enzymatically PARylated nucleosome (Widom 601 DNA), sample contained ADP-BeF3; 15,740 particles, global resolution 6.60 Å, domains fitted as rigid bodies. Particulars: both partners purified.

The source of these data is publication doi:10.1101/2025.11.10.687450, “ALC1 Finds a New Foothold on the Nucleosome’s Super-Groove” (bioRxiv, 2025).

B1: Amplified in Liver Cancer 1 (ALC1), wild type (enzyme)
chain: MERAGATSRGGQAPGFLLRLHTEGRAEAARVQEQDLRQWGLTGIHLRSYQLEGVNWLAQRFHCQNGCILGDEMGLGKTCQTIALFIYLAGRLNDEGPFLILCPLSVLSNWKEEMQRFAPGLSCVTYAGDKEERACLQQDLKQESRFHVLLTTYEICLKDASFLKSFPWSVLVVDEAHRLKNQSSLLHKTLSEFSVVFSLLLTGTPIQNSLQELYSLLSFVEPDLFSKEEVGDFIQRYQDIEKESESASELHKLLQPFLLRRVKAEVATELPKKTEVVIYHGMSALQKKYYKAILMKDLDAFENETAKKVKLQNILSQLRKCVDHPYLFDGVEPEPFEVGDHLTEASGKLHLLDKLLAFLYSGGHRVLLFSQMTQMLDILQDYMDYRGYSYERVDGSVRGEERHLAIKNFGQQPIFVFLLSTRAGGVGMNLTAADTVIFVDSDFNPQNDLQAAARAHRIGQNKSVKVIRLIGRDTVEEIVYRKAASKLQLTNMIIEGGHFTLGAQKPAADADLQLSEILKFGLDKLLASEGSTMDEIDLESILGETKDGQWVSDALPAAEGGSRDQEEGKNHMYLFEGKDYSKEPSKEDRKSFEQLVNLQKTLLEKASQEGRSLRNKGSVLIPGLVEGSTKRKRVLSPEELEDRQKKRQEAAAKRRRLIEEKKRQKEEAEHKKKMAWWESNNYQSFCLPSEESEPEDLENGEESSAELDYQDPDATSLKYVSGDVTHPQAGAEDALIVHCVDDSGHWGRGGLFTALEKRSAEPRKIYELAGKMKDLSLGGVLLFPVDDKESRNKGQDLLALIVAQHRDRSNVLSGIKMAALEEGLKKIFLAAKKKKASVHLPRIGHATKGFNWYGTERLIRKHLAARGIPTYIYYFPRSKSAVLHSQSSSSSSRQLVP
notes: ALC1 (chromatin remodeler), human, UniProt Q86WJ1; wild type; residues 28-874 are modelled in the map; The sample is that of the public dataset EMPIAR-10739; also called WT ALC1
Take B1: the binding result was “binds”.
